These results are taken from paper PMC11615311 (Nature Communications, 2024).

The target in assay [1] is UAF1-USP1 complex (purified) (UniProt Q8TAF3 1-677; O94782 1-785). The experiment in a line: pull-down.
Assay [2] deals with BAZ1B-SMARCA5 complex (purified) (human | , UniProt Q9UIG0 1-1483; O60264 1-1052). The experiment in a line: pull-down.
BAZ1B-SMARCA5 complex (purified), sequence (Q9UIG0 whole entry, chain 1 of 2): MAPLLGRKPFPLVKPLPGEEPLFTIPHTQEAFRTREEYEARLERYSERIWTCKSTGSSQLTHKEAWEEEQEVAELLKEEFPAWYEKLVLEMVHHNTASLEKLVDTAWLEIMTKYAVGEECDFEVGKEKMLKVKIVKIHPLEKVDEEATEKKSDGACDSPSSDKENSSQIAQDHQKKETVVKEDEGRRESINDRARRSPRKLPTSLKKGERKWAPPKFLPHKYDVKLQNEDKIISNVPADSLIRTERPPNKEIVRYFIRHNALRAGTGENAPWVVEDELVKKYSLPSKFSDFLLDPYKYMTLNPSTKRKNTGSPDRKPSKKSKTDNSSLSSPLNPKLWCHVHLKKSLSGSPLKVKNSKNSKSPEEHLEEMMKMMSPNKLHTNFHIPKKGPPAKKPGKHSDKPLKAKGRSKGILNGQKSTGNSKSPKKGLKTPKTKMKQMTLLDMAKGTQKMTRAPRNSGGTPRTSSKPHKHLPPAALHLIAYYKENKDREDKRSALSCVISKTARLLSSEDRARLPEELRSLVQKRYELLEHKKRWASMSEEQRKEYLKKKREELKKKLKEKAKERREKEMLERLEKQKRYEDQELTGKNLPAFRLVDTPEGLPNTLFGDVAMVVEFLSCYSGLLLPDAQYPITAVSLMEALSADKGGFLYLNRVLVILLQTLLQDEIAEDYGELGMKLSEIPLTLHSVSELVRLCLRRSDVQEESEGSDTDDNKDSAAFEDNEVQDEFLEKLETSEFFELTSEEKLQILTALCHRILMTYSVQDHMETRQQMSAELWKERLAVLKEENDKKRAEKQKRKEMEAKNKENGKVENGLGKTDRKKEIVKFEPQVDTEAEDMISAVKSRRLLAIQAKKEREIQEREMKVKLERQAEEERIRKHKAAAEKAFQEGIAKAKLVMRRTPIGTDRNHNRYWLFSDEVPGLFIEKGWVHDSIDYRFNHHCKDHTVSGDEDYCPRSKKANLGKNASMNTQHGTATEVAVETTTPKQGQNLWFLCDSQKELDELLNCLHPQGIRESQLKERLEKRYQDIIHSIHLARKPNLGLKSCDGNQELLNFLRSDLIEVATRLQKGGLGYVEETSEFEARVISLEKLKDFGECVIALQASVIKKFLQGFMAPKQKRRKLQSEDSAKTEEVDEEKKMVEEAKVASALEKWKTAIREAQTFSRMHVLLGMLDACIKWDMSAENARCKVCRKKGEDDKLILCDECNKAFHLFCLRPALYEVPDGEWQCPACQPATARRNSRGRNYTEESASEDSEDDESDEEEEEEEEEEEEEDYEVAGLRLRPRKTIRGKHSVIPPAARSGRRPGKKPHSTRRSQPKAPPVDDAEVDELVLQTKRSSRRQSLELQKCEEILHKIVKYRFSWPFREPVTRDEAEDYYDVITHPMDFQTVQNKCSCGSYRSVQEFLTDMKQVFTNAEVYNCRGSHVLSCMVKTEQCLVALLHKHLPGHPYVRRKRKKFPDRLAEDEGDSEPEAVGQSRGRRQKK
BAZ1B-SMARCA5 complex (purified), sequence (O60264 whole entry, chain 2 of 2): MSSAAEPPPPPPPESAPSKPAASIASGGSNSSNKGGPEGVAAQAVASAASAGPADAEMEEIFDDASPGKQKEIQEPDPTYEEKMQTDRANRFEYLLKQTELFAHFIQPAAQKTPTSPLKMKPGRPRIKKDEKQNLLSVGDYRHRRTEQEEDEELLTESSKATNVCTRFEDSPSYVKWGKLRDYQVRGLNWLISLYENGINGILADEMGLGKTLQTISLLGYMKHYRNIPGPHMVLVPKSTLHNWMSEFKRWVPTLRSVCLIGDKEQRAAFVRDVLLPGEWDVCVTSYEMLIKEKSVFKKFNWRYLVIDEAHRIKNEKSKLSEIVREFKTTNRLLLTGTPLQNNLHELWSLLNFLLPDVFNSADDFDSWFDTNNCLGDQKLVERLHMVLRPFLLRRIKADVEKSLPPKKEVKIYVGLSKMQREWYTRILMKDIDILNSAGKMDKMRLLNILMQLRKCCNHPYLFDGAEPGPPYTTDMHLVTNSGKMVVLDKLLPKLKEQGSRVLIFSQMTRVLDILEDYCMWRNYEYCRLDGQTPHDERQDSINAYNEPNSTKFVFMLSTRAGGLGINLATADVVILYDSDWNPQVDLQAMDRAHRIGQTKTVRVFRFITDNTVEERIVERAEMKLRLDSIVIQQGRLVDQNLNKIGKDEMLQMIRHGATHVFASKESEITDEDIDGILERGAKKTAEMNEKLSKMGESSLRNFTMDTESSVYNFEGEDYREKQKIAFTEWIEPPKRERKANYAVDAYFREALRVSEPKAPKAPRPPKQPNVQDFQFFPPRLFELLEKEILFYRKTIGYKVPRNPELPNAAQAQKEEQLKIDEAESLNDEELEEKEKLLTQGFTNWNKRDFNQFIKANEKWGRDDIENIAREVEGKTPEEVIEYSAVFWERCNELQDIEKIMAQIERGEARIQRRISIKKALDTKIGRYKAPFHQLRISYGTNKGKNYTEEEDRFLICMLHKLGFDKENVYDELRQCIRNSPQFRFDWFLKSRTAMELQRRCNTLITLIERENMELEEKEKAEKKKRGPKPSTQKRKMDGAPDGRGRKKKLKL

UAF1-USP1 complex (purified), sequence (Q8TAF3 whole entry, chain 1 of 2): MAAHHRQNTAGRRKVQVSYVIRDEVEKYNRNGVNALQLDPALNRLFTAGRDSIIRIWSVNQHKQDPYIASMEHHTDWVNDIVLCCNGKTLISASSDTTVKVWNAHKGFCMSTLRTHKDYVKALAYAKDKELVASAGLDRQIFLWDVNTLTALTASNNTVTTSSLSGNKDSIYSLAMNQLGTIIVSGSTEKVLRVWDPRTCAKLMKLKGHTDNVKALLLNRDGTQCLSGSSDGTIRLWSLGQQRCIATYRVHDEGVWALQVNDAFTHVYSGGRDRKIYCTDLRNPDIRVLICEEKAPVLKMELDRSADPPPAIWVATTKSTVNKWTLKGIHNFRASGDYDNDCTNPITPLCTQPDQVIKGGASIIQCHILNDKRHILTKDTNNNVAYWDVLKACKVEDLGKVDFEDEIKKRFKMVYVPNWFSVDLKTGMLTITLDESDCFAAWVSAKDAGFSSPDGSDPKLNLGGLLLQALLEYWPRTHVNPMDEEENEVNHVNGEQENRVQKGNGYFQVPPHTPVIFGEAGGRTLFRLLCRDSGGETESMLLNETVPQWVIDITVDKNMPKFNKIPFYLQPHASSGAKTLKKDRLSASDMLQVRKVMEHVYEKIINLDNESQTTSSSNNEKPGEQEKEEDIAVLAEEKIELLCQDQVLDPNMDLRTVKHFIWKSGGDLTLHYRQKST
UAF1-USP1 complex (purified), sequence (O94782 whole entry, chain 2 of 2): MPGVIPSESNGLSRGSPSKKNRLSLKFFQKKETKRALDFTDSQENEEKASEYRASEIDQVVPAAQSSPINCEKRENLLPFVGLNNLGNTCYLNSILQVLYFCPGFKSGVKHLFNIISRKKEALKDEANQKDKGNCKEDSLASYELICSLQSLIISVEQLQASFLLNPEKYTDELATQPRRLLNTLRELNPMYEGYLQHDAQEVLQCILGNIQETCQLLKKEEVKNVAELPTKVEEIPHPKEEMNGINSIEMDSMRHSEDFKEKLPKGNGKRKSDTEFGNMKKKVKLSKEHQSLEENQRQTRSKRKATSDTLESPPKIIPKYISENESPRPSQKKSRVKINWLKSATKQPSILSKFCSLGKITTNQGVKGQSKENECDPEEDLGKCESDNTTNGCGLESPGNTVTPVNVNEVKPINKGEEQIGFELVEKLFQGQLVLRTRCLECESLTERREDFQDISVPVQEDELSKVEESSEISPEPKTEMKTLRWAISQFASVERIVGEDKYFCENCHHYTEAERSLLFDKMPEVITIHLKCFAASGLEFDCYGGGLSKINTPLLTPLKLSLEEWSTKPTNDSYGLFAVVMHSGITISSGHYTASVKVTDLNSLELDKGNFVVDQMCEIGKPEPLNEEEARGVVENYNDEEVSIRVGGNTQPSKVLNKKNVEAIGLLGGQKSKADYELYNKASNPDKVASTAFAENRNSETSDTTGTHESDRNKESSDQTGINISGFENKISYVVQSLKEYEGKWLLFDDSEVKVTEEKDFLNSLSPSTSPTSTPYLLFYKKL

B1: MBP-tagged ATAD5 (1–603) (domain or fragment, human, UniProt Q96QE3 1-603, looked up)
chain: MVGVLAMAAAAAPPPVKDCEIEPCKKRKKDDDTSTCKTITKYLSPLGKTRDRVFAPPKPSNILDYFRKTSPTNEKTQLGKECKIKSPESVPVDSNKDCTTPLEMFSNVEFKKKRKRVNLSHQLNNIKTENEAPIEISSDDSKEDYSLNNDFVESSTSVLRYKKQVEVLAENIQDTKSQPNTMTSLQNSKKVNPKQGTTKNDFKKLRKRKCRDVVDLSESLPLAEELNLLKKDGKDTKQMENTTSHANSRDNVTEAAQLNDSIITVSYEEFLKSHKENKVEEIPDSTMSICVPSETVDEIVKSGYISESENSEISQQVRFKTVTVLAQVHPIPPKKTGKIPRIFLKQKQFEMENSLSDPENEQTVQKRKSNVVIQEEELELAVLEAGSSEAVKPKCTLEERQQFMKAFRQPASDALKNGVKKSSDKQKDLNEKCLYEVGRDDNSKKIMENSGIQMVSKNGNLQLHTDKGSFLKEKNKKLKKKNKKTLDTGAIPGKNREGNTQKKETTFFLKEKQYQNRMSLRQRKTEFFKSSTLFNNESLVYEDIANDDLLKVSSLCNNNKLSRKTSIPVKDIKLTQSKAESEASLLNVSTPKSTRRSGRISST
On to B1, for which the binding result in assay [1] and in assay [2] was “binds” throughout.
